Measured values published in article PMC12216052 (2025).

Molecular target: Notch1(EGF1-36) (amino acids 20-1426) (human, UniProt P46531 20-1426, biotin, chemically at the N-terminus (EZ-Link Sulfo-NHS-Biotin))
Assay: SPR

Sequence of Notch1(EGF1-36) (amino acids 20-1426) (P46531 20-1426): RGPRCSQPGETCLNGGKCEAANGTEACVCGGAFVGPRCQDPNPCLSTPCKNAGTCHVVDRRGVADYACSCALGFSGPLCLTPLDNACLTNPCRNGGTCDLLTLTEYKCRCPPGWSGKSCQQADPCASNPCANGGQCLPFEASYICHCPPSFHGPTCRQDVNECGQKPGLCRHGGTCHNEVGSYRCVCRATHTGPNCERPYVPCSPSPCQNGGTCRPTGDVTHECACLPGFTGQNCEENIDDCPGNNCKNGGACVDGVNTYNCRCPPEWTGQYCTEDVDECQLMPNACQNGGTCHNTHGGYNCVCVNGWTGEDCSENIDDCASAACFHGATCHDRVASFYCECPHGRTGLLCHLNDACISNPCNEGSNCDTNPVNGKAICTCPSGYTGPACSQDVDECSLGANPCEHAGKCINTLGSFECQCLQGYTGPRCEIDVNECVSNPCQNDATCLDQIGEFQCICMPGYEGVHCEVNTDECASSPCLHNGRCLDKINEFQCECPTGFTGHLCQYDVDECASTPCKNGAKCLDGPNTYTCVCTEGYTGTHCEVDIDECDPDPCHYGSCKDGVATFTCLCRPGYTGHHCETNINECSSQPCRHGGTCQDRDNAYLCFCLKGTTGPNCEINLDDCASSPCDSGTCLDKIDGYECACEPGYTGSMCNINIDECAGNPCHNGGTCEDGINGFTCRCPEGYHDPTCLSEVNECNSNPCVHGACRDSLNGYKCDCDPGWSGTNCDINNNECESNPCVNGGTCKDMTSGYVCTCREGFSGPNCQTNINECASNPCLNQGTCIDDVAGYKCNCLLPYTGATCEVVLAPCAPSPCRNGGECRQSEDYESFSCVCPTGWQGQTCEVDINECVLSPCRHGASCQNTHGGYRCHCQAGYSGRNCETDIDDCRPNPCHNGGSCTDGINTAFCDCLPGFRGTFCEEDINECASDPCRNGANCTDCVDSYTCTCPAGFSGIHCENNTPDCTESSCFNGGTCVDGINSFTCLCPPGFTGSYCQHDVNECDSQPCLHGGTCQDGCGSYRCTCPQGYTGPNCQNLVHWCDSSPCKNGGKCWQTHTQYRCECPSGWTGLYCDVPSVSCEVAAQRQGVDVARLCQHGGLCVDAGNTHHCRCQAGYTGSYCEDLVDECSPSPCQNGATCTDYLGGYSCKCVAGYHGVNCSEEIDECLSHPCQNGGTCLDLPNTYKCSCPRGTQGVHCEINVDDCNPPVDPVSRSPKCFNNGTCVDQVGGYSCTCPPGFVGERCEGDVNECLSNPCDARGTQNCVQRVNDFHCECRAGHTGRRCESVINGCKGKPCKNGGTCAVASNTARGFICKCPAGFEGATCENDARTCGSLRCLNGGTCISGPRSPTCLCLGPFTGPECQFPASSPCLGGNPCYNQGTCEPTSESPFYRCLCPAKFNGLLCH

Kd: 7.7 µM
B1: Human DLL4 (N-EGF5, amino acids 27-400) (domain or fragment)
chain: SGVFQLQLQEFINERGVLASGRPCEPGCRTFFRVCLKHFQAVVSPGPCTFGTVSTPVLGTNSFAVRDDSSGGGRNPLQLPFNFTWPGTFSLIIEAWHAPGDDLRPEALPPDALISKIAIQGSLAVGQNWLLDEQTSTLTRLRYSYRVICSDNYYGDNCSRLCKKRNDHFGHYVCQPDGNLSCLPGWTGEYCQQPICLSGCHEQNGYCSKPAECLCRPGWQGRLCNECIPHNGCRHGTCSTPWQCTCDEGWGGLFCDQDLNYCTHHSPCKNGATCSNSGQRSYTCTCRPGYTGVDCELELSECDSNPCRNGGSCKDQEDGYHCLCPPGYYGLHCEHSTLSCADSPCFNGGSCRERNQGANYACECPPNFTGSNCE
